The record followed here is publication doi:10.1101/2024.10.01.615909 (bioRxiv, 2024).

The target in the experiment is T1, S-tag-KLCR1 (Arabidopsis thaliana, UniProt O81629 1-609).
T1 sequence: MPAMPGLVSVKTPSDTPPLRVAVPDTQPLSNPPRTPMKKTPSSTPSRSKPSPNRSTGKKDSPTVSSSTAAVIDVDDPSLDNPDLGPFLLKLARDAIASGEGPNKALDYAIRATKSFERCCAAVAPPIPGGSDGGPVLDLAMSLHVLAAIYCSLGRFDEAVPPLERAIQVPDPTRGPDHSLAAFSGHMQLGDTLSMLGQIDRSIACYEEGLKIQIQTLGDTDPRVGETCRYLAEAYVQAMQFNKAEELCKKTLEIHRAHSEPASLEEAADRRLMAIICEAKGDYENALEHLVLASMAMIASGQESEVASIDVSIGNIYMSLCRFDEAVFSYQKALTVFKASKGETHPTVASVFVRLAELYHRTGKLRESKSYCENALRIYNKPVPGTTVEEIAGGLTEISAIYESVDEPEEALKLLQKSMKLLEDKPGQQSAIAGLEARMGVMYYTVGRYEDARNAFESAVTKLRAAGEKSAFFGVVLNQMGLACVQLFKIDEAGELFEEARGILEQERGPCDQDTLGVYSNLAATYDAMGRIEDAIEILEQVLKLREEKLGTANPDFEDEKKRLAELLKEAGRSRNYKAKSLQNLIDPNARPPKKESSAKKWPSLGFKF
Nature of the experiment: co-sedimentation.

B1: His8-SUMO (HS)-IQD2 (natural protein)
chain: MGKKAKWFSSVKKAFSPDSKKSKQKLAEGQNGVISNPPVVDNVRQSSSSPPPALAPREVRVAEVIVERNRDLSPPSTADAVNVTATDVPVVPSSSAPGVVRRATPTRFAGKSNEEAAAILIQTIFRGYLARRALRAMRGLVRLKLLMEGSVVKRQAANTLKCMQTLSRVQSQIRARRIRMSEENQARQKQLLQKHAKELAGLKNGDNWNDSIQSKEKVEANLLSKYEATMRRERALAYSYSHQQNWKNNSKSGNPMFMDPSNPTWGWSWLERWMAGRPLESSEKEQSNSNNDNAASVKGSINRNEAAKSLTRNGSTQPNTPSSARGTPRNKNSFFSPPTPSRLNQSSRKSNDDDSKSTISVLSERNRRHSIAGSSVRDDESLAGSPALPSYMVPTKSARARLKPQSPLGGTTQENEGFTDKASAKKRLSYPTSPALPKPRRFSAPPKVESGGVTVTNGAGS
Take B1: the binding result is listed as “binds”.
